# Changes are numbered by the printed parent chain.
# B1: fusion protein 7 (insulin analog 1 + L2 + IgG2 Fc1) (Fc fusion)
# chain: FVNQHLCGEHLVEALYLVCGERGFHYGGGGGGSGGGGGIVEQCCESICSLEQLENYCGPGPQPGPQPGPQPGPQPGPQPGPQPGPQPGPQECPPCPAPPVAGPSVFLFPPKPKDTLMISRTPEVTCVVVDVSHEDPEVQFNWYVDGVEVHNAKTKPREEQFNSTFRVVSVLTVVHQDWLNGKEYKCKVSNKGLPAPIEKTISKTKGQPREPQVYTLPPSREEMTKNQVSLTCLVKGFYPSDIAVEWESNGQPENNYKTTPPMLDSDGSFFLYSKLTVDKSRWQQGNVFSCSVMHEALHNHYTQKSLSLSPG
# B2: fusion protein 5 (insulin analog 1 + L2 + IgG2 Fc1) (Fc fusion)
# chain: FVNQHLCGEHLVEALYLVCGERGFHYGGGGGGSGGGGGIVEQCCESICSLEQLENYCGGGGGQGGGGQGGGGQGGGGQGGGGQECPPCPAPPVAGPSVFLFPPKPKDTLMISRTPEVTCVVVDVSHEDPEVQFNWYVDGVEVHNAKTKPREEQFNSTFRVVSVLTVVHQDWLNGKEYKCKVSNKGLPAPIEKTISKTKGQPREPQVYTLPPSREEMTKNQVSLTCLVKGFYPSDIAVEWESNGQPENNYKTTPPMLDSDGSFFLYSKLTVDKSRWQQGNVFSCSVMHEALHNHYTQKSLSLSPG
# B3: fusion protein 8 (insulin analog 1 + L2 + IgG2 Fc1) (Fc fusion)
# chain: FVNQHLCGEHLVEALYLVCGERGFHYGGGGGGSGGGGGIVEQCCESICSLEQLENYCGGGGGAGGGGAGGGGAGGGGGECPPCPAPPVAGPSVFLFPPKPKDTLMISRTPEVTCVVVDVSHEDPEVQFNWYVDGVEVHNAKTKPREEQFNSTFRVVSVLTVVHQDWLNGKEYKCKVSNKGLPAPIEKTISKTKGQPREPQVYTLPPSREEMTKNQVSLTCLVKGFYPSDIAVEWESNGQPENNYKTTPPMLDSDGSFFLYSKLTVDKSRWQQGNVFSCSVMHEALHNHYTQKSLSLSPG
# B4: LY3209590 (Fc fusion)
# chain: B3 chain with E9S, Y16E, E45T, I47T, E51D, A63Q, A68Q, A73Q
# B5: fusion protein 3 (insulin analog 3 + L2 + IgG2 Fc1) (Fc fusion)
# chain: B3 chain with E9S, Y16H, E45T, G58N, A63Q, A68Q, A73Q
# B6: fusion protein 4 (insulin analog 4 + L2 + IgG2 Fc1) (Fc fusion)
# chain: B3 chain with N3K, A63Q, A68Q, A73Q
# B7: fusion protein 1 (insulin analog 1 + L2 + IgG2 Fc1) (Fc fusion)
# chain: B3 chain with A63Q, A68Q, A73Q
# B8: fusion protein 9 (insulin analog 6 + L2 + IgG2 Fc1) (Fc fusion)
# chain: B3 chain with G58N, G59H, A63Q, A68Q, A73Q
# B9: fusion protein 2 (insulin analog 2 + L2 + IgG2 Fc1) (Fc fusion)
# chain: B3 chain with E9S, E45H, A63Q, A68Q, A73Q
# B10: fusion protein 6 (insulin analog 5 + L2 + IgG2 Fc1) (Fc fusion)
# chain: FVNQHLCGEHLVEALYLVCGERGFHYGGGGGSGGGGGIVEQCCESICSLEQLENYCGGGGGQGGGGQGGGGQGGGGGECPPCPAPPVAGPSVFLFPPKPKDTLMISRTPEVTCVVVDVSHEDPEVQFNWYVDGVEVHNAKTKPREEQFNSTFRVVSVLTVVHQDWLNGKEYKCKVSNKGLPAPIEKTISKTKGQPREPQVYTLPPSREEMTKNQVSLTCLVKGFYPSDIAVEWESNGQPENNYKTTPPMLDSDGSFFLYSKLTVDKSRWQQGNVFSCSVMHEALHNHYTQKSLSLSPG
# Target: Type B human insulin receptor (hIR-B) (human), P06213
# Assay: cell-based or functional assay
row,"Activity of human insulin receptor subtype B (EC50), autophosphorylation in CHO-K1-hIRB cells (HTRF phospho-Y1150/1151)",Binder
1,275 nM,B1
2,182 nM,B2
3,326 nM,B3
4,116 nM,B4
5,4.57 nM,B5
6,288 nM,B6
7,422 nM,B7
8,120 nM,B8
9,2.68 nM,B9
10,328 nM,B10
